The text below walks through data of US20240277868.

The data set deals with synthetic TNF-derived myristoylated peptide.

“purified recombinant His-tagged wild type SIRT6”: the KmPEP is 61.1 µM.
